The chains are these.
B1: R4B11 scFv-Fc (Fc fusion)
VH: QVQLEQSGAEVREPGASVKVSCKASGLTSGSYAITWVRQAPGQGLEWMGVIIPLVGVTNYAEKFQGRVTFTADTSTSTAYMELTSLRSDDTATYYCARDPFCSGNGCYGYYDVWGPGVKVTVSS
VL: DIELTQSPSSLSASVGDRVTITCRASQDISSWLAWYQQKPGKAPKLLISSASTLQSGVPSRFSGSGSGTDFTLTINSLQSEDFATYYCQQYNSVPLTFGGGTKVEMK
B2: scFv R3C4 (scFv, V domains shown)
VH: QVQLEQSGAEVKKPGASVKVSCKASGFTSGSYAISWVRQAPGQGLEWMGVIIPLVGVTNYAEKFQGRVTFTADTSTSTAYMELSSLRSEDTATYFCARDPYCSGNGCYGWYDVWGPGVLVTVSS
VL: DIELTQSPSSLSASVGDKVTISCRASQYIKSWLAWYQQKPGKAPKLLIYKASSLQSGVPSRFSGSGSGTDFTLTITNVQPEDFATYYCQQYDSAPFTFGPGTKLDIR
B3: scFv R4B11 (scFv, V domains shown)
VH: QVQLEQSGAEVREPGASVKVSCKASGLTSGSYAITWVRQAPGQGLEWMGVIIPLVGVTNYAEKFQGRVTFTADTSTSTAYMELTSLRSDDTATYYCARDPFCSGNGCYGYYDVWGPGVKVTVSS
VL: DIELTQSPSSLSASVGDRVTITCRASQDISSWLAWYQQKPGKAPKLLISSASTLQSGVPSRFSGSGSGTDFTLTINSLQSEDFATYYCQQYNSVPLTFGGGTKVEMK
B4: scFv R4G7 (scFv, V domains shown)
VH: EVQLLESGGDLVQPGESLRLSCVVSGISFSNHGMTWVRQAPGKGLDWVSSIDSDGGGTFYADSVKGRFTISRDDSNNTVSLQMNSLRVEDTAVYYCAARHEYSDYYWGRGVPVTVSS
VL: DIELTQSPSILSVSPGERATLSCRASQSVGNRLAWYHQRPGQAPRLLIYGASSRPTGIPDRFSASGSGTEFTLTISSLEPEDVGVYYCQQNSKWPLTFGGGTKVEIK
B5: scFv R4G8 (scFv, V domains shown)
VH: EVQLVESGGGLVQPGESLRLSCVVSGLSFSNHGVTWVRQAPGKGLDWVSSIDTDGGGTFYGDSVKGRFTISRDNSKSTVSLEMNSLRVEDTAVYYCAARQEYSDYYWGRGVLVTVSS
VL: DIELTQSPAILSLSPGERATLLCRASQNVGNRLAWYHQRPGQAPRLLIYGASSRPTGIPDRFSGSGSGTEFTLTISSLEPEDVGVYYCQQDSNWPLTFGGGTRVEIK
B6: scFv R4H12 (scFv, V domains shown)
VH: QVQLLESGGGLVQPGESLRLSCVVSGLSFSNHGVTWVRQAPGKGLDWVSSIDTDGGGTFYGDSVKGRFTISRDDSKNTVSLEMNSLRVEDTAVYYCAARQEYSDYYWGRGVPVTVSS
VL: EIELTQSPSTLSVSPGERATLSCRASQSVGSRLAWYHQSPGQAPRLLIYGASSRPTGIPDRFSASGSGTEFTLTISSLEPEDVGLYYCQQNSKWPLTFGGGTKVEIK
B7: scFv R4G11 (scFv, V domains shown)
VH: EVQLVQSGGGLVQPGESLRLSCVVSGLSFSNHGVTWVRQAPGKGLDWVSSIDTDGGGTFYGDSVKGRFTISRDDSKNTVSLEMNSLRVEDTAVYYCAARQEYSDYYWGRGVPVTVSS
VL: DIELTQSPSTLSVSPGERATLSCRASQSVGSRLAWYHQRPGQAPRLLIYGASSRPTGIPDRFSGSGSGTEFTLTISSLEPEDVGLYYCQQNSKWPLTFGGGTKVEIK
B8: scFv R3H2 (scFv, V domains shown)
VH: EVQLLESGGGLVQPGESLRLSCVVSGLSFSNHGVTWVRQAPGKGLDWVSSIDTDGGGTFYGDSVKGRFTISRDDSKNTVSLEMNSLRVEDTAVYYCAARQEYSDYYWGRGVPVTVSS
VL: DIELTQSPAILSLSPGERATLLCRASQNVGNRLAWYHQRPGQAPRLLIYGASSRPTGIPDRFSGSGSGTEFTLTISSLEPEDVGVYYCQQDSNWPLTFGGGTRVEIK

For the first assay, the target named is T1, Glycoprotein of Ravn virus in whole irradiated virus (Ravn virus, UniProt Q1PDC7 19-681).
T1 sequence: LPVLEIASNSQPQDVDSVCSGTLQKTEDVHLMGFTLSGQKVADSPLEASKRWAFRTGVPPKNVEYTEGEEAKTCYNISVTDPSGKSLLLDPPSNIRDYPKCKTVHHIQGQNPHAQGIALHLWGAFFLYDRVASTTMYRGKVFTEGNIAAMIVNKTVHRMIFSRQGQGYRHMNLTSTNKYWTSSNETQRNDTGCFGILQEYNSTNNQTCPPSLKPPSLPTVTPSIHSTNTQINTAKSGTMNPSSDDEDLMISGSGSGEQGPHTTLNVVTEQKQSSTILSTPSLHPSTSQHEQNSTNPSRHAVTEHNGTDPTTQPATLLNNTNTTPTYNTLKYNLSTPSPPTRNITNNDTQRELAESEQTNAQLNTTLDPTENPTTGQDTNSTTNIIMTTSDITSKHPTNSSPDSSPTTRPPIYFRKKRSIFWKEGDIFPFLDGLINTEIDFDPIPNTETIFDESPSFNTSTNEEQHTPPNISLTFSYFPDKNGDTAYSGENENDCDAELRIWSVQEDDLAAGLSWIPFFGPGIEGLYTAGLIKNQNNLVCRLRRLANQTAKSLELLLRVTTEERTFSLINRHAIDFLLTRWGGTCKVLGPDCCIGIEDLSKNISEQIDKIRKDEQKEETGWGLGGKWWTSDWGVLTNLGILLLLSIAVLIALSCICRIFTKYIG
The experiment in a line: Western blot on whole irradiated virus, reduced. Background: In western blotting, separated proteins are transferred to a membrane and probed.
With B1, the binding result is given as “no binding (tested: 1 ug/ml)”.

The target in the next assay is T2, Glycoprotein of Marburg virus isolate Musoke in whole irradiated virus (Marburg virus, isolate Musoke, UniProt P35253 19-681).
T2 sequence: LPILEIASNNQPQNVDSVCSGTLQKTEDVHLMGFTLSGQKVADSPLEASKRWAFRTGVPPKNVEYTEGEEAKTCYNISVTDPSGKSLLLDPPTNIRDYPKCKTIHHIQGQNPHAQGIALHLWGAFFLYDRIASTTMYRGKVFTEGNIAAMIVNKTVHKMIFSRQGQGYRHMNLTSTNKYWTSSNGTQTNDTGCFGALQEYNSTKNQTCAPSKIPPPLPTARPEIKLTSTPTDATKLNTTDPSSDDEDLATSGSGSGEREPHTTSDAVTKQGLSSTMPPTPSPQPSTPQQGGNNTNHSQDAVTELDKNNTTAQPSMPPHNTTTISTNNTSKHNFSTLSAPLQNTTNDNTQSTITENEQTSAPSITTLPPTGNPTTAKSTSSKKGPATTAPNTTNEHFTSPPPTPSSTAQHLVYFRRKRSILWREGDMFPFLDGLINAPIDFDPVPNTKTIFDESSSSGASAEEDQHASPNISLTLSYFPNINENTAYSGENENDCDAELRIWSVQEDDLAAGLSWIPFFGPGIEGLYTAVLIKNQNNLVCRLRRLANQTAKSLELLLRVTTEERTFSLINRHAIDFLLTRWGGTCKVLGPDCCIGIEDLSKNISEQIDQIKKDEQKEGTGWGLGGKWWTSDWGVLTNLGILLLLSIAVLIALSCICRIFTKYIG
Description: Western blot of scFv-Fc on whole irradiated virus, reduced.
In the case of B1, the binding result is recorded as “binds”.

The next assay addresses MARV Ci67 GP1-649 (Marburg virus, isolate Ci67). The experiment in a line: SPR (BIAcore 3000), GP1-649 amine-coupled on CM5, scFv in solution. Background: Surface plasmon resonance follows binding to a sensor surface in real time, without labels.
As usually defined, the Kd is the free concentration of one partner at which half of the binding sites on the other are occupied at equilibrium, for simple one-to-one binding. The term koff denotes a measure of how fast the partners let go of each other. Lower therefore signals a long-lived complex. A word on the kon: it is the second-order rate constant of association. Lower therefore signals slower complex formation. In turn, B2 registered a Kd of 33 nM, a koff of 0.000386 s⁻¹ and a kon of 11600 M⁻¹ s⁻¹.

Turning to B3, the dissociation constant Kd is 4.6 nM, the koff turned out to be 0.000407 s⁻¹ and the kon came out at 87600 M⁻¹ s⁻¹.

Molecule B4 registered a Kd of 4.6 nM, a koff of 0.000379 s⁻¹ and a kon of 81900 M⁻¹ s⁻¹.

In turn, B5 had a Kd of 68 nM, a koff of 0.0063 s⁻¹ and a kon of 92300 M⁻¹ s⁻¹.

Molecule B6 came in with a Kd of 3.9 nM, a koff of 0.000565 s⁻¹ and a kon of 146000 M⁻¹ s⁻¹.

Molecule B7 had a Kd of 6.3 nM, a koff of 0.000475 s⁻¹ and a kon of 75000 M⁻¹ s⁻¹.

For the molecule B8, the Kd was 155 nM, the koff was 0.000993 s⁻¹ and the association rate constant (kon) was determined as 6390 M⁻¹ s⁻¹.

(Values after patent publication US20200407428A1 (GOVERNMENT OF THE UNITED STATES OF AMERICA AS REPRESENTED …, published 2020).)
